In the supplement of paper PMC6755084:

B1: F1*; the commonest letter at each place (parent)
chain: GAGACCGCAACTGAAAAGTTGTTATCACTTGTCGTAAGACACTTTGGATGGGTTGAAGTTCTGCACGTAGAAGCAAAAGGC

Variants of: B1
Assay: fraction ligated after 30 min (ligated reads / total reads); higher = more ligase activity
Conditions: with F1*sub RNA substrate (template-directed ligation), 42 °C
Procedure, shortened: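 Ligase ribozyme variants were made from oligo-pool templates by PCR amplification, T7 transcription and gel purification. After gel separation, ligated and unligated bands were reverse transcribed with barcoded primers and sequenced on a MiSeq, with core bases filtered at quality ≥20. The fraction ligated for each variant was the number of ligated reads divided by total reads.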

Compared with T32C C40A, T32C C40G is lower in fraction ligated: 0.771 for the first, 0.743 for the second.

Going from T32C C40T to T32C A48T, the fraction ligated falls from 0.786 to 0.114.

First: T32C A48C
Second: T32C A48G
The fraction ligated of the first is lower: 0.369 for the first, 0.75 for the second.

Compared with T32G C42T, T32G C42G is lower in fraction ligated: 0.846 for the first, 0.837 for the second.

Compared with T32G C42A, C33A A48C is lower in fraction ligated: 0.845 for the first, 0.784 for the second.

First: C33A A48G
Second: C33A A48T
The fraction ligated of the first is higher: 0.79 for the first, 0.0887 for the second.

First: C33A A41T
Second: C33A A41C
The fraction ligated of the first is higher: 0.839 for the first, 0.818 for the second.

Compared with C33A A41G, C33G A56G is lower in fraction ligated: 0.823 for the first, 0.793 for the second.

Going from C33G A56T to C33G A56C, the fraction ligated falls from 0.867 to 0.837.

Compared with C33A G47A, C33A G47C is lower in fraction ligated: 0.745 for the first, 0.109 for the second.

Compared with C33A G47T, C33A T49G is higher in fraction ligated: 0.219 for the first, 0.739 for the second.

First: C33A T49A
Second: C33A T49C
The fraction ligated of the first is higher: 0.725 for the first, 0.37 for the second.

Going from C33A G50A to C33A G50C, the fraction ligated falls from 0.343 to 0.0908.

Going from C33A G50T to T32A T44G, the fraction ligated rises from 0.627 to 0.814.

Going from T32A T44A to T32A T44C, the fraction ligated rises from 0.819 to 0.82.

Compared with C33G, C33T is higher in fraction ligated: 0.831 for the first, 0.869 for the second.

First: C33A
Second: C33A A57T
The fraction ligated of the first is higher: 0.869 for the first, 0.849 for the second.

Going from C33A A57G to C33A A57C, the fraction ligated falls from 0.868 to 0.834.

Going from C33G T44C to C33G T44G, the fraction ligated rises from 0.804 to 0.808.

C33G T44A and C33A A56G are the same in fraction ligated: 0.812 for the first, 0.812 for the second.

First: C33A A56C
Second: C33A A56T
The fraction ligated of the first is lower: 0.742 for the first, 0.837 for the second.

First: T32C T43A
Second: T32C T43G
The fraction ligated of the first is higher: 0.779 for the first, 0.729 for the second.

First: T32C T43C
Second: T32A A56T
The fraction ligated of the first is lower: 0.782 for the first, 0.82 for the second.

Going from T32A A56C to T32A A56G, the fraction ligated rises from 0.574 to 0.808.

First: T32A A37G
Second: T32A A37T
The fraction ligated of the first is higher: 0.838 for the first, 0.82 for the second.

First: T32A A37C
Second: T32G T43A
The fraction ligated of the first is higher: 0.849 for the first, 0.812 for the second.

Compared with T32G T43G, T32G T43C is higher in fraction ligated: 0.792 for the first, 0.81 for the second.

Going from T32A A41G to T32A A41C, the fraction ligated falls from 0.808 to 0.8.

Compared with T32A A41T, C33G A48T is lower in fraction ligated: 0.825 for the first, 0.0603 for the second.

Compared with C33G A48C, C33G A48G is higher in fraction ligated: 0.727 for the first, 0.793 for the second.

First: T32A A48G
Second: T32A A48C
The fraction ligated of the first is higher: 0.749 for the first, 0.727 for the second.

Compared with T32A A48T, T32A T49A is higher in fraction ligated: 0.0494 for the first, 0.568 for the second.

Compared with T32A T49G, T32A T49C is lower in fraction ligated: 0.618 for the first, 0.223 for the second.

Going from T32G C40T to T32G C40G, the fraction ligated falls from 0.836 to 0.813.

Going from T32G C40A to C33G G34A, the fraction ligated rises from 0.825 to 0.829.

Going from C33G G34C to C33G G34T, the fraction ligated rises from 0.843 to 0.856.

First: T32G T35A
Second: T32G T35G
The fraction ligated of the first is lower: 0.814 for the first, 0.831 for the second.

Going from T32G T35C to T32C A37C, the fraction ligated falls from 0.802 to 0.79.

First: T32C A37G
Second: T32C A37T
The fraction ligated of the first is higher: 0.815 for the first, 0.78 for the second.

First: T32A G50T
Second: T32A G50C
The fraction ligated of the first is higher: 0.454 for the first, 0.0632 for the second.

Going from T32A G50A to C33A T45A, the fraction ligated rises from 0.232 to 0.803.

Going from C33A T45G to C33A T45C, the fraction ligated rises from 0.0419 to 0.53.

Compared with C33A T35G, C33A T35A is higher in fraction ligated: 0.866 for the first, 0.879 for the second.

Going from C33A T35C to T32G T45C, the fraction ligated falls from 0.85 to 0.346.

Going from T32G T45A to T32G T45G, the fraction ligated falls from 0.748 to 0.0918.

Compared with C33G G50A, C33G G50C is lower in fraction ligated: 0.253 for the first, 0.114 for the second.

Compared with C33G G50T, T32A C42A is higher in fraction ligated: 0.545 for the first, 0.843 for the second.

Going from T32A C42G to T32A C42T, the fraction ligated falls from 0.861 to 0.845.

First: T32G
Second: T32C
The fraction ligated of the first is higher: 0.828 for the first, 0.803 for the second.

Compared with T32A, T32G G55T is lower in fraction ligated: 0.842 for the first, 0.798 for the second.

Compared with T32G G55A, T32G G55C is lower in fraction ligated: 0.803 for the first, 0.63 for the second.

Going from T32G A48G to T32G A48T, the fraction ligated falls from 0.75 to 0.143.

Going from T32G A48C to T32G A57T, the fraction ligated rises from 0.401 to 0.814.

First: T32G A57C
Second: T32G A57G
The fraction ligated of the first is lower: 0.82 for the first, 0.844 for the second.

Compared with T32C A56C, T32C A56T is higher in fraction ligated: 0.727 for the first, 0.766 for the second.

First: T32C A56G
Second: C33G A39C
The fraction ligated of the first is lower: 0.738 for the first, 0.833 for the second.

Going from C33G A39G to C33G A39T, the fraction ligated rises from 0.836 to 0.851.

First: C33G G55A
Second: C33G G55C
The fraction ligated of the first is higher: 0.839 for the first, 0.643 for the second.

Compared with C33G G55T, C33A C42T is higher in fraction ligated: 0.777 for the first, 0.872 for the second.

Compared with C33A C42G, C33A C42A is higher in fraction ligated: 0.84 for the first, 0.879 for the second.

Compared with T32C G47C, T32C G47A is higher in fraction ligated: 0.0784 for the first, 0.669 for the second.

Going from T32C G47T to T32C G55T, the fraction ligated rises from 0.103 to 0.75.

Compared with T32C G55C, T32C G55A is higher in fraction ligated: 0.664 for the first, 0.771 for the second.

Going from T32C T45A to T32C T45G, the fraction ligated falls from 0.726 to 0.109.

First: T32C T45C
Second: T32G G38C
The fraction ligated of the first is lower: 0.217 for the first, 0.798 for the second.

Going from T32G G38A to T32G G38T, the fraction ligated falls from 0.822 to 0.799.

Going from T32G A56C to T32G A56T, the fraction ligated rises from 0.743 to 0.785.

Going from T32G A56G to T32C G46T, the fraction ligated falls from 0.799 to 0.729.

Compared with T32C G46A, T32C G46C is lower in fraction ligated: 0.763 for the first, 0.717 for the second.

First: T32G A41G
Second: T32G A41T
The fraction ligated of the first is lower: 0.754 for the first, 0.826 for the second.

Going from T32G A41C to T32G A39G, the fraction ligated rises from 0.794 to 0.819.

Going from T32G A39T to T32G A39C, the fraction ligated falls from 0.862 to 0.855.

Compared with T32A A39C, T32A A39T is lower in fraction ligated: 0.837 for the first, 0.827 for the second.

Compared with T32A A39G, T32C G50C is lower in fraction ligated: 0.832 for the first, 0.0903 for the second.

Going from T32C G50T to T32C G50A, the fraction ligated falls from 0.273 to 0.216.

First: T32G C33G
Second: T32G C33A
The fraction ligated of the first is lower: 0.828 for the first, 0.843 for the second.

Compared with T32G C33T, C33G A36C is lower in fraction ligated: 0.856 for the first, 0.796 for the second.

Compared with C33G A36T, C33G A36G is lower in fraction ligated: 0.825 for the first, 0.821 for the second.

Going from T32G G50A to T32G G50T, the fraction ligated rises from 0.179 to 0.384.

Going from T32G G50C to T32C G34A, the fraction ligated rises from 0.0952 to 0.796.

Going from T32C G34C to T32C G34T, the fraction ligated falls from 0.772 to 0.759.

First: T32A G47C
Second: T32A G47T
The fraction ligated of the first is lower: 0.102 for the first, 0.104 for the second.

Compared with T32A G47A, C33T A36T is higher in fraction ligated: 0.597 for the first, 0.88 for the second.

Variant C33T A36C has a fraction ligated of 0.843.
